This is an account of results in US20060134709A1.

Assay [1] addresses soluble monomeric FcγRIIIA-linker-AVITAG (human) (UniProt P08637). Kind of assay: ELISA.
In assay [2] the target is soluble FcγRIIB (human) (UniProt P31994). Kind of assay: ELISA. In general terms: An ELISA detects its analyte on a solid surface through an enzyme-linked reagent.

ch4-4-20 V305L, P396L (antibody): the fold increase vs wt in assay [1] worked out at 1.3 x; in assay [2], 5.5 x.

Turning to ch4-4-20 V427A, P396L (antibody), the results for the fold increase vs wt in assay [1] and in assay [2] were 1.9 x and 4.7 x, respectively.

As to “ch4-4-20 P343S, P353L, S375I, S383N (antibody)”, the values for the fold increase vs wt in assay [1] and in assay [2] were 0.5 x and 6 x, respectively.

For the substance ch4-4-20 N315I (antibody), in assay [2], the fold increase vs wt stood at 0.75 x.

Turning to ch4-4-20 E258D, N384K (antibody), the fold increase vs wt in assay [1] came out at 1.25 x; in assay [2], 4 x.

With ch4-4-20 D399E, M428L (antibody), the fold decrease vs wt in assay [1] and in assay [2] was 0.5 x in each case.

As for ch4-4-20 P247L (antibody), the fold increase vs wt in assay [1] is 0.5 x; in assay [2], 4 x.

Turning to ch4-4-20 K370N, S440N (antibody), the values for the fold increase vs wt in assay [1] and in assay [2] were 1 x and 3.5 x, respectively.

ch4-4-20 V240I, V281M (antibody): the fold decrease vs wt in assay [1] and in assay [2] was 0.25 x in each case.

ch4-4-20 V323I, P396L (antibody): the fold increase vs wt in assay [1] stood at 1.1 x; in assay [2] it was 8.2 x.

With ch4-4-20 S407I (antibody), the values for the fold increase vs wt in assay [1] and in assay [2] were 0.5 x and 4 x, respectively.

In the case of ch4-4-20 E216D, E345K, S375I (antibody), the results for the fold increase vs wt in assay [1] and in assay [2] were 0.5 x and 4 x, respectively.

Take ch4-4-20 K210M, P396L (antibody): the values for the fold increase vs wt in assay [1] and in assay [2] were 1.9 x and 4.6 x, respectively.

Take ch4-4-20 P227S, P396L (antibody): the fold increase vs wt is 1.5 x in assay [1] and 4 x in assay [2].

Take ch4-4-20 K326I, S408N, P396L (antibody): the fold increase vs wt in assay [1] was found to be 4 x; in assay [2], 9.3 x.

With ch4-4-20 V379M, P396L (antibody), the fold increase vs wt is 1.9 x in assay [1] and 5.6 x in assay [2].

With ch4-4-20 V303I, P396L (antibody), the fold increase vs wt stood at 1.1 x in assay [1] and 4 x in assay [2].

In the case of ch4-4-20 L358P, P396L (antibody), the fold increase vs wt stood at 1.9 x in assay [1] and 4.2 x in assay [2].

For the substance ch4-4-20 P247L, E389G (antibody), the fold increase vs wt was determined as 1.5 x in assay [1] and 9 x in assay [2].

Turning to ch4-4-20 R255L, P396L (antibody), the fold increase vs wt came to 1.8 x in assay [1] and 6 x in assay [2].

As for ch4-4-20 E258D, P396L (antibody), the fold increase vs wt was determined as 1.9 x in assay [1] and 4.9 x in assay [2].

With ch4-4-20 P247L, A330T, S440G (antibody), in assay [1], the fold increase vs wt amounted to 0.75 x. In addition, the fold decrease vs wt in assay [2] was determined as 0.25 x.

For ch4-4-20 V240A, P396L (antibody), the values for the fold increase vs wt in assay [1] and in assay [2] were 1.3 x and 4.2 x, respectively.

As for ch4-4-20 K246I, Q362H, K370E (antibody), the fold decrease vs wt in assay [2] amounted to 0.5 x.

For ch4-4-20 D399E, R292L, V185M (antibody), in assay [2], the fold increase vs wt was 0.5 x.

In the case of ch4-4-20 K320E, K326E (antibody), the fold increase vs wt in assay [1] came out at 1 x.

For ch4-4-20 S298N, W381R (antibody), the fold increase vs wt in assay [1] is 2 x.

For “ch4-4-20 T335N, K370E, A378V, T394M, S424L (antibody)”, in assay [1], the fold increase vs wt was found to be 0.5 x.

For “ch4-4-20 D280E, S354F, A431D, L441I (antibody)”, in assay [1], the fold increase vs wt is 3 x.

In the case of ch4-4-20 P247L, I377F (antibody), the fold increase vs wt in assay [1] is 1 x.

Consider ch4-4-20 D401V (antibody), for which, in assay [1], the fold increase vs wt was determined as 0.5 x.

Take ch4-4-20 P396H (antibody): the fold increase vs wt in assay [1] was 1 x.
